Data reported in the supplement of paper PMC10065799, “High-throughput profiling of sequence recognition by tyrosine kinases and SH2 domains using bacterial peptide display” (eLife, 2023).
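Throughout, for SH2 binding enrichment of the phosphorylated peptide, bacterial display: peptide library displayed on the E. coli surface as eCPX fusions, selected cells deep-sequenced, score is each peptide's frequency after selection divided by its frequency in the input.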
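Throughout, for phosphorylation enrichment, bacterial display: 11-residue human phosphosite peptides and single-mutation variants displayed on the E. coli surface, counted by deep sequencing, each peptide's frequency after selection divided by its frequency in the unselected input library; frequency after pTyr selection over input frequency; kinase dosed for 20-30% of maximal phosphorylation in three min.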

Each sequence was assayed against SHP2-C SH2 (assay: SH2 binding enrichment of the phosphorylated peptide, bacterial display (enrichment ratio); higher = better substrate or ligand; peptides without Tyr show the background).
CTTIHYNSMCN [TP53_Y234_Y236S] gave an SH2 binding enrichment of 1.06. FEHVGYTTLNR [CHN1_Y148_YF] showed an SH2 binding enrichment of 18.8. For VGTKRYRAPEV [ACVRL1_Y375_M376R], the SH2 binding enrichment was 0.861. Sequence PVQAASQKVVA [HBB_Y131_Y131S] has an SH2 binding enrichment of 0.712. LEITWYPFDME [RIPOR2_Y316_V320M] gave an SH2 binding enrichment of 1.04. With SPFEVYVDKSQ [FLNA_Y373] the SH2 binding enrichment was 0.697. For FLRTGYSIPFG [TGM1_Y370_V372I_YF], the SH2 binding enrichment was 1.62. For NTGLDYIKFTW [HRH1_Y386], the SH2 binding enrichment was 0.811. For GKFFQYDTWNQ [IGF2_Y116_K120N], the SH2 binding enrichment was 0.718. FGISGYLVDSV [MAP2K3_Y214] showed an SH2 binding enrichment of 0.883. With YEDTLYTVLHR [UNC13D_Y61_A59T] the SH2 binding enrichment was 0.525. Sequence GRRNTCFASIA [ACADM_Y352_Y352C_YF] has an SH2 binding enrichment of 0.565. Work on HLLRIYYDITD [MMP27_Y307_W304L] yielded an SH2 binding enrichment of 0.704. For HLAQRYLIWEC [SCN5A_Y694_R689H], the SH2 binding enrichment was 0.872. Sequence EYHRLYEEYTR [PIK3R1_Y467_D464H] has an SH2 binding enrichment of 0.718. Work on REGKIYEFNQV [ZNF665_Y162_H157R_YF] yielded an SH2 binding enrichment of 0.589. Work on AQADIYKADFQ [IKBKG_Y308] yielded an SH2 binding enrichment of 0.647. Work on QRPGLYDRPGA [HNRNPH2_Y210_P209L] yielded an SH2 binding enrichment of 0.513. DVMDLYKTLRG [NR3C1_Y30_F29L] gave an SH2 binding enrichment of 0.789. In the case of CVGGFYGGCNE [CTSC_Y352_Y347C], the SH2 binding enrichment is reported as 0.748. For RGDSAYHSQRH [ERBB3_Y1132], the SH2 binding enrichment was 0.65. With KSIQLYDTPFE [SHB_Y297_G293S_YF] the SH2 binding enrichment was 0.802. For PPTYRYERGSR [INPPL1_Y663], the SH2 binding enrichment was 0.363. INASGYRIGPA [ACSM1_Y477] gave an SH2 binding enrichment of 0.633. SVTCTDSPALN [TP53_Y126_Y126D] showed an SH2 binding enrichment of 0.662. SNVEQYQAMVT [TPR_Y965] gave an SH2 binding enrichment of 0.411. ETLLFYGFRRS [POR_Y564_C566Y_YF] was tested, and the SH2 binding enrichment was 0.458. With QLAPQYTYTQG [FLNA_Y1761_A1764T] the SH2 binding enrichment was 1.03. HHIDFYKETTN [FGFR1_Y654_K656E_YF] showed an SH2 binding enrichment of 0.933.

What follows are sequences tested against c-Src SH2 in the same assay as above.
Sequence CTTIHYNSMCN [TP53_Y234_Y236S] has an SH2 binding enrichment of 2.42. Sequence FEHVGYTTLNR [CHN1_Y148_YF] has an SH2 binding enrichment of 5.21. For VGTKRYRAPEV [ACVRL1_Y375_M376R], the SH2 binding enrichment was 0.528. PVQAASQKVVA [HBB_Y131_Y131S] showed an SH2 binding enrichment of 0.432. With LEITWYPFDME [RIPOR2_Y316_V320M] the SH2 binding enrichment was 0.591. SPFEVYVDKSQ [FLNA_Y373] was tested, and the SH2 binding enrichment was 0.685. In the case of FLRTGYSIPFG [TGM1_Y370_V372I_YF], the SH2 binding enrichment is reported as 5.52. Sequence NTGLDYIKFTW [HRH1_Y386] has an SH2 binding enrichment of 0.475. In the case of GKFFQYDTWNQ [IGF2_Y116_K120N], the SH2 binding enrichment is reported as 0.761. In the case of FGISGYLVDSV [MAP2K3_Y214], the SH2 binding enrichment is reported as 0.656. In the case of YEDTLYTVLHR [UNC13D_Y61_A59T], the SH2 binding enrichment is reported as 2.26. Sequence GRRNTCFASIA [ACADM_Y352_Y352C_YF] has an SH2 binding enrichment of 0.529. HLLRIYYDITD [MMP27_Y307_W304L] was tested, and the SH2 binding enrichment was 1.55. HLAQRYLIWEC [SCN5A_Y694_R689H] showed an SH2 binding enrichment of 0.644. For EYHRLYEEYTR [PIK3R1_Y467_D464H], the SH2 binding enrichment was 1.86. For REGKIYEFNQV [ZNF665_Y162_H157R_YF], the SH2 binding enrichment was 0.465. In the case of AQADIYKADFQ [IKBKG_Y308], the SH2 binding enrichment is reported as 0.421. QRPGLYDRPGA [HNRNPH2_Y210_P209L] gave an SH2 binding enrichment of 1.59. Work on DVMDLYKTLRG [NR3C1_Y30_F29L] yielded an SH2 binding enrichment of 0.738. CVGGFYGGCNE [CTSC_Y352_Y347C] was tested, and the SH2 binding enrichment was 0.908. With RGDSAYHSQRH [ERBB3_Y1132] the SH2 binding enrichment was 0.819. KSIQLYDTPFE [SHB_Y297_G293S_YF] was tested, and the SH2 binding enrichment was 2.03. PPTYRYERGSR [INPPL1_Y663] showed an SH2 binding enrichment of 0.426. For INASGYRIGPA [ACSM1_Y477], the SH2 binding enrichment was 0.453. In the case of SVTCTDSPALN [TP53_Y126_Y126D], the SH2 binding enrichment is reported as 0.419. SNVEQYQAMVT [TPR_Y965] showed an SH2 binding enrichment of 0.688. ETLLFYGFRRS [POR_Y564_C566Y_YF] gave an SH2 binding enrichment of 0.356. QLAPQYTYTQG [FLNA_Y1761_A1764T] gave an SH2 binding enrichment of 1.34. HHIDFYKETTN [FGFR1_Y654_K656E_YF] showed an SH2 binding enrichment of 0.761.

Each sequence was assayed against Grb2 SH2 (UniProt P62993) in the same assay as above.
Chain of Grb2 SH2 (P62993 whole entry, looked up): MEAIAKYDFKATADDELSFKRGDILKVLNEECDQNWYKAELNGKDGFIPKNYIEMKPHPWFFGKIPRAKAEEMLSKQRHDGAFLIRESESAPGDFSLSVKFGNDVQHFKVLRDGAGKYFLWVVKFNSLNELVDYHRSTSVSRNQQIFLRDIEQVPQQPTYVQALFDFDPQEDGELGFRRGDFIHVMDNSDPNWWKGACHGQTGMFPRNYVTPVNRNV
Work on CTTIHYNSMCN [TP53_Y234_Y236S] yielded an SH2 binding enrichment of 1.01. For FEHVGYTTLNR [CHN1_Y148_YF], the SH2 binding enrichment was 0.917. Work on VGTKRYRAPEV [ACVRL1_Y375_M376R] yielded an SH2 binding enrichment of 0.892. For PVQAASQKVVA [HBB_Y131_Y131S], the SH2 binding enrichment was 0.623. With LEITWYPFDME [RIPOR2_Y316_V320M] the SH2 binding enrichment was 0.951. SPFEVYVDKSQ [FLNA_Y373] was tested, and the SH2 binding enrichment was 1.02. FLRTGYSIPFG [TGM1_Y370_V372I_YF] gave an SH2 binding enrichment of 1.06. Work on NTGLDYIKFTW [HRH1_Y386] yielded an SH2 binding enrichment of 0.892. GKFFQYDTWNQ [IGF2_Y116_K120N] gave an SH2 binding enrichment of 0.746. FGISGYLVDSV [MAP2K3_Y214] was tested, and the SH2 binding enrichment was 0.949. With YEDTLYTVLHR [UNC13D_Y61_A59T] the SH2 binding enrichment was 0.761. For GRRNTCFASIA [ACADM_Y352_Y352C_YF], the SH2 binding enrichment was 0.842. For HLLRIYYDITD [MMP27_Y307_W304L], the SH2 binding enrichment was 0.711. HLAQRYLIWEC [SCN5A_Y694_R689H] showed an SH2 binding enrichment of 0.965. Work on EYHRLYEEYTR [PIK3R1_Y467_D464H] yielded an SH2 binding enrichment of 0.96. For REGKIYEFNQV [ZNF665_Y162_H157R_YF], the SH2 binding enrichment was 0.923. AQADIYKADFQ [IKBKG_Y308] showed an SH2 binding enrichment of 0.836. Sequence QRPGLYDRPGA [HNRNPH2_Y210_P209L] has an SH2 binding enrichment of 0.804. Sequence DVMDLYKTLRG [NR3C1_Y30_F29L] has an SH2 binding enrichment of 0.724. CVGGFYGGCNE [CTSC_Y352_Y347C] was tested, and the SH2 binding enrichment was 1.01. Sequence RGDSAYHSQRH [ERBB3_Y1132] has an SH2 binding enrichment of 1.11. KSIQLYDTPFE [SHB_Y297_G293S_YF] showed an SH2 binding enrichment of 0.766. With PPTYRYERGSR [INPPL1_Y663] the SH2 binding enrichment was 0.613. Sequence INASGYRIGPA [ACSM1_Y477] has an SH2 binding enrichment of 0.799. With SVTCTDSPALN [TP53_Y126_Y126D] the SH2 binding enrichment was 0.667. Sequence SNVEQYQAMVT [TPR_Y965] has an SH2 binding enrichment of 0.754. Sequence ETLLFYGFRRS [POR_Y564_C566Y_YF] has an SH2 binding enrichment of 0.749. QLAPQYTYTQG [FLNA_Y1761_A1764T] was tested, and the SH2 binding enrichment was 0.766. For HHIDFYKETTN [FGFR1_Y654_K656E_YF], the SH2 binding enrichment was 1.08.

The sequences below were run against EPHB1 (UniProt P54762) (assay: phosphorylation enrichment, bacterial display (enrichment ratio); higher = better substrate or ligand; peptides without Tyr show the background).
Chain of EPHB1 (P54762 whole entry, looked up): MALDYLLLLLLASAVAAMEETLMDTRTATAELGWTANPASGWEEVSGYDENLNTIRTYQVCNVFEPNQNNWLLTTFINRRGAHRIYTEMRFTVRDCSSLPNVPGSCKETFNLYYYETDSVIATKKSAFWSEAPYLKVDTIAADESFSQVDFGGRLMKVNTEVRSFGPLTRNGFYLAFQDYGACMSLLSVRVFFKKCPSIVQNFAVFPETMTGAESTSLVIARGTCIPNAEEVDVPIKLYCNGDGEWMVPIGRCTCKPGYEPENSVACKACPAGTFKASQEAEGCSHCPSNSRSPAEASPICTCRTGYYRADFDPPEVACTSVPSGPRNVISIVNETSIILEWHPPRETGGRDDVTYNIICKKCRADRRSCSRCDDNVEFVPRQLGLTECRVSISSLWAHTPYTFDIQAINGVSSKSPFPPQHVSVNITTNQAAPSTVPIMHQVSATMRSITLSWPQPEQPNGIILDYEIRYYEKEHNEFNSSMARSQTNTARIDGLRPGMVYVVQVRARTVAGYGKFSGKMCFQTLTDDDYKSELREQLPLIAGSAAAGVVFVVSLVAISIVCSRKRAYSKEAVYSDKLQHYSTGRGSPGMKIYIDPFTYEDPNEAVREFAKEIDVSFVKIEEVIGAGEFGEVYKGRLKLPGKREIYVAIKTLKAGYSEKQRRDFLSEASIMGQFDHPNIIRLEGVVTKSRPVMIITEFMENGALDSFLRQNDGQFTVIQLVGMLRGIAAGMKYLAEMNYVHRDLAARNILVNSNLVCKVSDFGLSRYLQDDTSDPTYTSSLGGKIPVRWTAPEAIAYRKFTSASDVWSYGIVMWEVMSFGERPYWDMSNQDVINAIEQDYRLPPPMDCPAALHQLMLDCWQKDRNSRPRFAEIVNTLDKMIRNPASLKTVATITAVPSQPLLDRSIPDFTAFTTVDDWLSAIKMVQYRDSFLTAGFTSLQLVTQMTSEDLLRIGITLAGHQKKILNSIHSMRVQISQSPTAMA
CTTIHYNSMCN [TP53_Y234_Y236S] showed a phosphorylation enrichment of 0.514. FEHVGYTTLNR [CHN1_Y148_YF] showed a phosphorylation enrichment of 0.393. In the case of VGTKRYRAPEV [ACVRL1_Y375_M376R], the phosphorylation enrichment is reported as 0.308. For PVQAASQKVVA [HBB_Y131_Y131S], the phosphorylation enrichment was 0.592. Sequence LEITWYPFDME [RIPOR2_Y316_V320M] has a phosphorylation enrichment of 1.21. With SPFEVYVDKSQ [FLNA_Y373] the phosphorylation enrichment was 0.669. FLRTGYSIPFG [TGM1_Y370_V372I_YF] was tested, and the phosphorylation enrichment was 0.538. With NTGLDYIKFTW [HRH1_Y386] the phosphorylation enrichment was 0.647. With GKFFQYDTWNQ [IGF2_Y116_K120N] the phosphorylation enrichment was 0.545. In the case of FGISGYLVDSV [MAP2K3_Y214], the phosphorylation enrichment is reported as 0.377. YEDTLYTVLHR [UNC13D_Y61_A59T] gave a phosphorylation enrichment of 12.2. With GRRNTCFASIA [ACADM_Y352_Y352C_YF] the phosphorylation enrichment was 0.383. HLLRIYYDITD [MMP27_Y307_W304L] showed a phosphorylation enrichment of 1.93. In the case of HLAQRYLIWEC [SCN5A_Y694_R689H], the phosphorylation enrichment is reported as 1.03. For EYHRLYEEYTR [PIK3R1_Y467_D464H], the phosphorylation enrichment was 3.87. REGKIYEFNQV [ZNF665_Y162_H157R_YF] showed a phosphorylation enrichment of 0.356. With AQADIYKADFQ [IKBKG_Y308] the phosphorylation enrichment was 0.465. QRPGLYDRPGA [HNRNPH2_Y210_P209L] was tested, and the phosphorylation enrichment was 0.933. For DVMDLYKTLRG [NR3C1_Y30_F29L], the phosphorylation enrichment was 0.483. For CVGGFYGGCNE [CTSC_Y352_Y347C], the phosphorylation enrichment was 0.548. In the case of RGDSAYHSQRH [ERBB3_Y1132], the phosphorylation enrichment is reported as 0.534. Sequence KSIQLYDTPFE [SHB_Y297_G293S_YF] has a phosphorylation enrichment of 12.7. With PPTYRYERGSR [INPPL1_Y663] the phosphorylation enrichment was 0.302. Sequence INASGYRIGPA [ACSM1_Y477] has a phosphorylation enrichment of 0.371. SVTCTDSPALN [TP53_Y126_Y126D] gave a phosphorylation enrichment of 0.6. SNVEQYQAMVT [TPR_Y965] showed a phosphorylation enrichment of 0.443. Sequence ETLLFYGFRRS [POR_Y564_C566Y_YF] has a phosphorylation enrichment of 0.504. With QLAPQYTYTQG [FLNA_Y1761_A1764T] the phosphorylation enrichment was 0.436. Sequence HHIDFYKETTN [FGFR1_Y654_K656E_YF] has a phosphorylation enrichment of 1.5.
